# Results published in patent US6294341, “Method for detecting a substance having an activity to inhibit HIV infection using immunoassay and variant protein used for said method” (Korea Institute of Science and Technology, dated 2001).
# B1: glutathione S-transferase (GST), unmodified (other)
# chain: MACGHVKLIYFNGRGRAEPIRMILVAAGVEFEDERIEFQDWPKIKPTIPGGRLPIVKITDKRGDVKTMSESLAIARFIARKHNMMGDTDDEYYIIEKMIGQVEDVESEYHKTLMKPPEEKEKISKEILNGKVPILLQAICETLKESTGNLTVGDKVTLADVVLIASIDHITDLDKEFLTGKYPEIHKHRKHLLATSPKLAKYLSERHATAFLVPRGSPGIHRD
# Target: Trx-N variant protein (homo sapiens and HIV hybrid)
# Assay: immunoassay on plate-adsorbed Trx-N, detection with anti-GST antibody
binder,measurement,value
B1,binding result,no binding
